Reference: patent publication US6645504B1, “Bystander suppression of type I diabetes by oral administration of glucagon” (AutoImmune Inc., priority 1987, dated 2003)

Experiments:
DTH responses = DTH responses in animals fed MBP or MBP peptides; format: in vivo, Lewis rats; conditions: FIG. 15
Source text: Guinea pig MBP peptide 131-150 was ineffective in this case. Peptides were also fed with STI which prevents their breakdown by gastric juices and enhances their biological effect. DTH responses to whole MBP were suppressed by feeding MBP or any one of the MBP-peptides 21-40, or 71-90.

[1] = tested on: Cells, cytokines and activation markers in rat brain; assay: Immunohistology of cells, cytokines and activation markers in sections of rat brain; format: in vivo, Lewis rats; design: key to IL-4 / TGF-β / PGE: −: absence of labelling; +/−: <10 cells/section or trace labelling; +: few small foci; 2+: multiple foci; 3+: multiple large perivascular collections and diffuse submeningeal staining; conditions: brain sections at day 14 (peak of disease), n = 3/group
Protocol: The effect of oral administration of MBP in rats induced for EAE was analyzed in terms of the cells and factors present in the brains of fed and control rats. Lewis rats were fed MBP five times then immunized with MBP/CFA and their brains were examined immunohistologically at day 14 (peak of disease) and compared to brains from immunized control-fed animals harvested at the same time, and to brains of naive animals. Cryostat sections of cortex and cerebellum were fixed in paraformaldehyde-lysine-periodate for determination of leukocytes and activation antigens, or in acetone for the labelling of cytokines, and stained by a peroxidase-antiperoxidase method (Hancock, W. W., et al., J. Immunol. 138:164, 1987). Results of cytokine and endothelial labelling in 20 consecutive fields were judged as (−) absence of labelling, (+/−) <10 cells/section or trace labelling, (+) few small foci, (2+) multiple foci, and (3+) multiple large perivascular collections and diffuse submeningeal staining.

B1: MBP: Guinea pig myelin basic protein purified from brain tissue (protein, UniProt P25188 1-167, looked up)
Myelin basic protein: ASQKRPSQRHGSKYLATASTMDHARHGFLPRHRDTGILDSIGRFFGSDRAAPKRGSGKDSHHAARTTHYGSLPQKSQRSQDENPVVHFFKNIVTPRTPPPSQGKGRGLSLSRFSWGAEGQKPGFGYGGRADYKSKGFKGAHDAQGTLSKIFKLGGRDSRSGSPMARR
DTH responses to guinea pig MBP peptide 71-90 (DTH responses): suppressed
DTH responses to whole MBP (DTH responses): suppressed
IL-2R(p55), PCNA [1]: +/− (<10 cells/section or trace labelling)
IL-4 [1]: −
PGE [1]: −
TGF-β [1]: 2+
